Assay results: US20240299464A1, “BOTANICAL COMPOUNDS, METHODS, AND PROCEDURES FOR MEDICINAL TREATMENT RELATED TO IMMUNOINFLAMMATION, NEUROINFLAMMATION, DEPRESSION, MEMORY, FOCUS, AND NERVE DEGENERATION” (priority 2023, published 2024)
Marks after values point to notes of the source that are not given here.

Tests used:
mice = assay: Forced swimming test (FST), anti-anxiety and stress effects; type: in vivo
Protocol: The anti-anxiety and stress effects of the Ziptamin product were investigated in mice using the forced swim test as reported in Porsolt, et al. (5). Healthy female mice, after acclimatization, were randomly divided into 4 groups, each group consisting of 6 mice, specifically: • Group 1 (Disease control): Mice were administered distilled water; • Group 2 (Control): Mice were administered fluoxetine at a dose of 6.5 mg/kg; • Group 3 (Test sample): Mice were administered Ziptamin at a dose of 25 ml/kg, divided into 2 doses/day 4 hours apart; • Group 4 (Test sample): Mice were administered Ziptamin at a dose of 50 ml/kg, divided into 2 doses/day 4 hours apart.
Mice were administered distilled water or fluoxetine at a volume of 10 ml/kg once a day or Ziptamin at doses of 25 ml/kg and 50 ml/kg for 7 consecutive days, divided into 2 doses/day, with a 4-hour interval between doses. On day 7, 60 minutes after administering distilled water, fluoxetine, or Ziptamin, mice were placed in a cylindrical glass tube (diameter 20 cm, height 50 cm) containing water at a temperature of 23-25° C. and a depth of 20 cm for 6 minutes. Initially, the mice struggled to escape the water, but then gradually adapted and performed only the necessary movements to keep their heads above water (immobility state). Filming lasted for 6 minutes, including 1 minute for the mice to stabilize and adapt, and the remaining 5 minutes to record the movements and behavior of the mice in the water, including swimming time (mice moving their limbs in the water as if rowing in the center of the cylinder), struggling (front limbs moving quickly and strongly in or above the water, with a tendency to swim and hit the front limbs against the walls of the cylinder), and immobility (ceasing to struggle, only performing necessary movements to keep the head afloat) (FIG. 1). The test sample reduced anxiety and stress, decreasing immobility time and increasing swimming and struggling time in the test mice. After 6 minutes, the mice were removed from the water and dried to prevent hypothermia. Results are presented as mean values±SEM (standard error of the mean). Differences between groups were analyzed using the Kruskal-Wallis test and Mann-Whitney test with SPSS 26.0 software. A statistical significance is considered when the p-value is <0.05.

[1] = system: mice with immunosuppression induced by cyclophosphamide; assay: Immune stimulatory effects on mice with immunosuppression induced by cyclophosphamide; type: in vivo; conditions: for Body weight: CYP 150 mg/kg i.p. day 1
Protocol: The adult human dosage of Ziptamin is 0.5-1 bottle/day×250 ml/bottle A normal adult weighs about 60 kg→Mouse dose of Ziptamin: Dmouse=(0.5*250*11.76)/60=25 ml/kg and Dmouse=(1*250*11.76)/60=50 ml/kg. The dose conversion factor from adults to mice is 11.76 according to the Guidelines for preclinical and clinical testing of traditional medicine, herbal medicine issued by the Department of Science, Technology and Training-Ministry of Health under Decision No. 141/QD-K2DT dated 27 Oct. 2015.
Healthy male mice, after stable housing, were randomly divided into 5 groups, each with 8 mice: • Group 1 (Physiological): Mice were given distilled water; • Group 2 (Disease control): Mice were given distilled water; • Group 3 (Control): Mice were injected […] with filgrastim at a dose of 50 μg/kg; • Group 4 (Test group): Mice were given Ziptamin at a dose of 25 ml/kg, divided into 2 doses/day 4 hours apart; • Group 5 (Test group): Mice were given Ziptamin at a dose of 50 ml/kg, divided into 2 doses/day 4 hours apart; • Group 1 (physiological) were injected intraperitoneally with 0.9% NaCl, volume 10 ml/kg. Mice from groups 2 to 5 were injected intraperitoneally with CYP (dissolved in 0.9% NaCl) at a single dose of 150 mg/kg on day 1, injection volume 10 ml/kg. Mice in group 3 were subcutaneously injected with filgrastim (dissolved in 5% glucose), dose 50 μg/kg, once a day, from day 2 to day 4, the first dose 24 hours after CYP injection. Mice in groups 4 and 5 were given Ziptamin at doses of 25 ml/kg and 50 ml/kg from day 1 to day 4, divided into 2 doses/day, 4 hours apart between doses. Mice in the test groups were recorded for weight daily before administering distilled water, test sample, or medication. On day 4, one hour after the filgrastim injection or Ziptamin administration, mice were euthanized with CO2 gas, blood was collected from the heart to determine the leukocyte formula at Medlatec clinic; spleen and thymus were collected, rinsed with cold 0.9% NaCl, dried, weighed, and the relative organ mass was determined using the formula:
[formula] • Where: • Porgan: organ weight (g) • Pbody: body weight (g)
Results are presented as mean±SEM (standard error of mean). Differences between groups were analyzed using Kruskal-Wallis and Mann-Whitney tests with SPSS 26.0 software. A difference was considered statistically significant when the p-value <0.05.

[2] = fluoxetine 6.5 mg/kg once a day, 7 days, female mice, n = 6, 5 minutes recorded
[3] = filgrastim 50 μg/kg day 2 to day 4, CYP 150 mg/kg, blood day 4, n = 8
[4] = filgrastim 50 μg/kg day 2 to day 4, CYP 150 mg/kg, day 4, n = 8

CNCCC(Oc1ccc(C(F)(F)F)cc1)c1ccccc1 (stereo not drawn) [Fluoxetin, fluoxetine]
Time Immobility (mice; [2]): 53.17 ± 29.27 s
Time Struggling (mice; [2]): 15.33 ± 8.52 s
Time Swimming (mice; [2]): 231.50 ± 28.25 s
decrease in immobility time compared to the disease control group (mice; fluoxetine 6.5 mg/kg, p<0.01): 68.66%
increase in swimming time compared to the disease control group (mice; fluoxetine 6.5 mg/kg, p<0.01): 90.27%
paddling time relative to the disease control group (mice; fluoxetine 6.5 mg/kg, p>0.05): 1.77 times

B1: filgrastim (protein, UniProt P09919 31-207, looked up)
Granulocyte …: TPLGPASSLPQSFLLKCLEQVRKIQGDGAALQEKLVSECATYKLCHPEELVLLGHSLGIPWAPLSSCPSQALQLAGCLSQLHSGLFLYQGLLQALEGISPELGPTLDTLQLDVADFATTIWQQMEELGMAPALQPTQGAMPAFASAFQRRAGGVLVASHLQSFLEVSYRVLRHLAQP
modifications: filgrastim
Body weight ([1]; Day 1, filgrastim 50 μg/kg group, n = 8): 19.34 ± 0.97 g
Body weight ([1]; Day 2, filgrastim 50 μg/kg once a day from day 2, n = 8): 18.19 ± 1.21 g
Body weight ([1]; Day 3, filgrastim 50 μg/kg once a day from day 2, n = 8): 17.64 ± 1.41 g
Body weight ([1]; Day 4, filgrastim 50 μg/kg once a day from day 2, n = 8): 17.08 ± 1.52 g
Ratio WBCC Lympho [1, 3]: 87.26 ± 4.57 %
Ratio WBCC Mono [1, 3]: 7.00 ± 1.91 %
Ratio WBCC Neutral [1, 3]: 5.74 ± 2.84 %
Volume WBC Lympho [1, 3]: 2.26 ± 0.60**^# 10^9/L
Volume WBC Mono [1, 3]: 0.15 ± 0.10**^# 10^9/L
Volume WBC Neutral [1, 3]: 0.25 ± 0.13** 10^9/L
Volume WBC Total WBC [1, 3]: 2.66 ± 0.73**^# 10^9/L
Relative weight of the spleen [1, 4]: 0.16 ± 0.05 % g/g
Relative weight of the thymus [1, 4]: 0.06 ± 0.03 % g/g
total white blood cell count, lymphocyte count, monocyte count, proportion of neutrophils and lymphocytes compared to the disease control group ([1]; filgrastim 50 μg/kg subcutaneously, p<0.05): increase
weight of the thymus compared to the disease control group ([1]; filgrastim 50 μg/kg, end of the experiment): remained unchanged
